T1: his-tagged human PVRIG (h-PVRIG-his) recombinant protein (human, UniProt Q6DKI7 41-171, limits assumed)
T1 construct: bought from Acrobiosystems; also called Human PVRIG-his; human PVRIG recombinant protein; not shown: his tag
T1 sequence (looked up): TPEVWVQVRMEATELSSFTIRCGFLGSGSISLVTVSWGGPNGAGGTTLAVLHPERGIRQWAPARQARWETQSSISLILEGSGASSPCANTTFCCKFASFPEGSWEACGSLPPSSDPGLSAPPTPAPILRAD

T2: human IgG1 Fc-tagged mouse PVRIG (m-PVRIG-hIgG1 Fc) (mouse, UniProt A0A1B0GS01 35-165)
T2 construct: bought from Acrobiosystems; also called Mouse PVRIG-Fc; mouse PVRIG recombinant protein; not shown: human IgG1 Fc tag of the Acrobiosystems product, and any linker to it
T2 sequence: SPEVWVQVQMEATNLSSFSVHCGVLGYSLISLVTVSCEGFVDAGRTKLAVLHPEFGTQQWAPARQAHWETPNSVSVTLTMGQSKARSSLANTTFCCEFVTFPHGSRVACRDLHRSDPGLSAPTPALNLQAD

T3: his-tagged cynomolgus monkey PVRIG (cyno-PVRIG-his) recombinant protein (cynomolgus monkey)
T3 construct: expressed in HEK293, purified by Ni-NTA; also called Monkey PVRIG-his; cynomolgus monkey PVRIG recombinant protein
T3 chain: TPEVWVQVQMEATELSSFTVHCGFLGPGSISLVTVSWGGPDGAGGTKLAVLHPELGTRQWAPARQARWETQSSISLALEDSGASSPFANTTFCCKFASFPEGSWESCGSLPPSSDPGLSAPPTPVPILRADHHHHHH

T4: human PVRIG expressed on cells (human, UniProt Q6DKI7 41-326)
T4 sequence (looked up): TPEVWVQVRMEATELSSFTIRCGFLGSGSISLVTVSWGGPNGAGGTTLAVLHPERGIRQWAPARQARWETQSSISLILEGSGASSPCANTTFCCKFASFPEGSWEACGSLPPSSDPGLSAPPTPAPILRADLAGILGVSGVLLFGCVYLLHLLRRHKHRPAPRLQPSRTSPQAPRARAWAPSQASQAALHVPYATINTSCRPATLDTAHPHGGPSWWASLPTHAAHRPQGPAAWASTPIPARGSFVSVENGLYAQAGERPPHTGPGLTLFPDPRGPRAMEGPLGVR

T5: mouse IgG2a Fc-tagged human PVRIG (h-PVRIG-mIgG2a Fc) recombinant protein (human, UniProt Q6DKI7 41-171, limits assumed)
T5 construct: bought from Acrobiosystems; not shown: mouse IgG2a Fc tag
T5 sequence (looked up): T1 sequence (looked up)

B1: anti-PVRIG antibody 38 (antibody, human IgG4 S228P, F234A L235A, V domains shown)
VH: QVQLVESGGGSVQAGGSLRLSCAASPSTYGPSDMAWFRQAPGKQREGVATISAAGRLTYYTDSVRGRFTISRDNAKNTMYLQMNSLKPEDTAMYYCAADFAGGSSLFADYKYWGQGTQVTVSS
notes: no light chain
B2: positive antibody Tab5 (antibody, human IgG4 S228P, kappa, F234A L235A, V domains shown)
VH: EVQLVESGGGVVKPGGSLRLSCAASGFTFGTSSMNWVRQAPGKGLEWVAVISFDGTEIHYADSVKGRFTISRDNSKSTVFLQMNSLRPDDTALYYCAKGSGNIYFYSGMDVWGQGTTVTVSS
VL: DIQMTQSPSTLSASVGDRVTITCRAGQSISGWLAWFQQKPGKAPNLLIYETSTLESGVPSRFSGSGSGTEYTLTISSLQPDDFATYYCQQYYSYPLTFGQGTKVEIKR
notes: Variable regions of CPA.7.021 (WO2016134333A1) on human IgG4 (S228P/F234A/L235A/K447A) and human kappa constant regions
B3: anti-PVRIG antibody 39 (antibody, human IgG4 S228P, F234A L235A, V domains shown)
VH: QVQLVESGGGSVQAGGSLRLSCAASRYTSRTDCMGWFRQAPGKEREGVAHIDSDGIPRYVESVKGRFTISQDHAKNTLYLQMNSLKPEDSATYYCVVGFKFGDYCAPNDWGQGTQVTVSS
notes: no light chain
B4: anti-PVRIG antibody 151 (antibody, human IgG4 S228P, F234A L235A, V domains shown)
VH: HVQLVESGGGSVQAGGSLRLSCVASASGFTYRPYCMAWFRQAPGKEREAVAGIDIFGGTTYADSVKGRFTASRDNAGFSLFLQMNDLKPEDTAMYYCAAGDSPDGRCPPLGQGLNYWGQGTQVTVSS
notes: no light chain
B5: anti-PVRIG antibody 30 (antibody, human IgG4 S228P, F234A L235A, V domains shown)
VH: HVQLVESGGGSVQAGGSLRLSCEASGYSYSGDCMGWFRRAPGKERDEGVATIDNAGRIKYADSVKGRFTISHGNGKYILYLQMNSLKPEDTDMYYCAAGWTFGGNCSPADWGQGTQVTVSS
notes: no light chain
B6: humanized anti-PVRIG/TIGIT bispecific antibody 1708-20H5 (bispecific antibody, human IgG4 S228P, kappa)
heavy: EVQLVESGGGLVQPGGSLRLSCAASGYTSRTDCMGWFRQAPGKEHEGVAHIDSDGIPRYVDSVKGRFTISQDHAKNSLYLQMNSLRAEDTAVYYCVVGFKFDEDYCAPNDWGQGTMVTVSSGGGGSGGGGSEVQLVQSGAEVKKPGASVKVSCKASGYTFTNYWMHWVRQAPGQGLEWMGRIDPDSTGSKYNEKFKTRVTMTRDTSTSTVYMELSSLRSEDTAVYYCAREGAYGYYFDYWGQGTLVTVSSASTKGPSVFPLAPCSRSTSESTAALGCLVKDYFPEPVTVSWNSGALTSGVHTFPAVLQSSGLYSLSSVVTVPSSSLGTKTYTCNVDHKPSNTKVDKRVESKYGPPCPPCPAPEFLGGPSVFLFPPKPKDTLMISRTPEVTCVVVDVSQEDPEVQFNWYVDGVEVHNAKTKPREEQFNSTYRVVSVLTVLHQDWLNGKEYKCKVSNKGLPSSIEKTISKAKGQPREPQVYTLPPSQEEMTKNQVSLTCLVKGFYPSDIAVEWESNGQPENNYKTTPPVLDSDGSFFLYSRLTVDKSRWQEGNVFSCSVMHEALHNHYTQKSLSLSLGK
light: DIQMTQSPSSLSASVGDRVTITCRASENIYSYLAWYQQKPGKSPKLLIYNARTLAEGVPSRFSGSGSGTDFTLTISSLQPEDFATYYCQYHSGSPLPFGGGTKVEIKRTVAAPSVFIFPPSDEQLKSGTASVVCLLNNFYPREAKVQWKVDNALQSGNSQESVTEQDSKDSTYSLSSTLTLSKADYEKHKVYACEVTHQGLSSPVTKSFNRGEC
B7: humanized anti-PVRIG/TIGIT bispecific antibody 1708-30H2 (bispecific antibody, human IgG4 S228P, kappa)
heavy: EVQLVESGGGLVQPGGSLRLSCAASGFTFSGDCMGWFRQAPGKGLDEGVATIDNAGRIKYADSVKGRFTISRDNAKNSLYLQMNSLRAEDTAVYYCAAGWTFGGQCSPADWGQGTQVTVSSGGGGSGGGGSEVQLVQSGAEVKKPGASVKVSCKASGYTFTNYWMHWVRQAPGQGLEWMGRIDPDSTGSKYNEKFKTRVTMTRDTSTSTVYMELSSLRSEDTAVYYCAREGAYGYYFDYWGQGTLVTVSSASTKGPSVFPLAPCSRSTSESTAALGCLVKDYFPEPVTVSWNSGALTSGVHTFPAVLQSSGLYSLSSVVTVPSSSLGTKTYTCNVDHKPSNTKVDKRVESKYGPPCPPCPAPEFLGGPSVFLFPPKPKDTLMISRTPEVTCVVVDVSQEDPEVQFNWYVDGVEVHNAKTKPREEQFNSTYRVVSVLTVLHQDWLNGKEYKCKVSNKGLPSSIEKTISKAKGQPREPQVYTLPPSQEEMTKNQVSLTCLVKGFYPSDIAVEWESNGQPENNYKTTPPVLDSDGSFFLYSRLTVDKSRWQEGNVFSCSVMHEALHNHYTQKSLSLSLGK
light: B6 light

molecular target: T1, his-tagged human PVRIG (h-PVRIG-his) …; experiment: ELISA, coated antigen
Procedure: (§1) ELISA assay was used to detect binding properties of anti-PVRIG antibodies. […] After the antibody was added, the activity of the binding of the antibody to the antigen was detected by adding a secondary antibody (HRP-conjugated anti-primary antibody Fc antibody) and HRP substrate TMIB.
(§2) A human, cynomolgus monkey, or mouse PVRIG protein (at a concentration of 1 μg/mL) was coated on a 96-well microplate at 100 μL per well, and incubated overnight at 4° C. The plate was washed three times with wash buffer at 250 μL per well. For each wash, the plate was shaken for 10 s to ensure adequate cleaning. A blocking solution (PBS+0.05% Tween20+1% BSA) was added at 300 μL/well, and the plate was incubated at room temperature for 1 h. The plate was washed three times with wash buffer at 250 μL per well. For each wash, the plate was shaken for 10 s to ensure adequate cleaning. Dilutions of the test anti-PVRIG antibodies were added at 100 μL/well. The plate was incubated at 37° C. for 1 h. The plate was washed three times with wash buffer at 250 μL per well. The […] anti-human IgG secondary antibody (Sigma, A8667) was added at 100 μL per well. The plate was incubated at 37° C. for 1 h. The plate was washed three times with wash buffer at 250 μL per well. TMB was added at 100 μL/well, and the plate was incubated in the dark for 15 min. 0.16 M sulfuric acid was added at 50 μL/well. The OD values at 450 nm were read by using a Thermo MultiSkanFc microplate reader, and the EC₅₀ values of the binding of the anti-PVRIG antibodies to PVRIG were calculated.

Row | EC50 [nM] | Binder
1 | 0.26 | B1
2 | 2.86 | B2
3 | 0.27 | B3
4 | 2.15 | B4
5 | 0.26 | B5

molecular target: T2, human IgG1 Fc-tagged mouse PVRIG …; experiment: ELISA, coated antigen
Procedure: as §1, §2

Row | binding result | Binder
6 | no binding | B1
7 | no binding | B2
8 | no binding | B3
9 | no binding | B4
10 | no binding | B5

Molecular target: T3, his-tagged cynomolgus monkey PVRIG …
Experiment: ELISA, coated antigen
Procedure: as §1, §2

Row | EC50 [nM] | Binder
11 | 0.4 | B1
12 | 0.16 | B3
13 | 2.43 | B4
14 | 0.16 | B5

molecular target: T4, human PVRIG expressed on cells; experiment: cell-based or functional assay

Row | Binder | NK92 killing of K562, killing activity (%), 20 nM antibody [%] | NK92 killing of K562, killing activity (%), 100 nM antibody [%]
15 | B1 | 29 | 27
16 | B2 | 32 | 32
17 | B3 | 32 | 30
18 | B4 | 35 | 33
19 | B5 | 36 | 39

molecular target: T1, his-tagged human PVRIG (h-PVRIG-his) …; experiment: ELISA, coated antigen; remark: another data set of the same source
Procedure: as §2
(§3) Binding of the humanized anti-PVRIG/TIGIT bispecific antibodies to human and cynomolgus monkey PVRIG and their blocking of the ligand of human PVRIG were detected according to the methods of Examples 4, 5 and 6.

Row | EC50 [nM] | Binder
20 | 1.41 | B2
21 | 2.47 | B6
22 | 0.32 | B7

Molecular target: T3, his-tagged cynomolgus monkey PVRIG …
Experiment: ELISA, coated antigen
Remark: another data set of the same source
Procedure: as §2, §3

Row | binding result | EC50 [nM] | Binder
23 | no binding | – | B2
24 | – | 0.144 | B6
25 | – | 0.184 | B7

molecular target: T5, mouse IgG2a Fc-tagged human PVRIG …; experiment: competition ELISA; human PVRIG coated, competitor human PVRL2
Procedure: The h-PVRIG-mIgG2a Fc protein (at a concentration of 1 μg/mL) was coated on the 96-well microplate at 100 μL per well, and incubated overnight at 4° C. The plate was washed three times with wash buffer at 250 μL per well. For each wash, the plate was shaken for 10 s to ensure adequate cleaning. A blocking solution was added at 300 μL/well, and the plate was incubated at room temperature for 1 h. The plate was washed three times with wash buffer at 250 μL per well. For each wash, the plate was shaken for 10 s to ensure adequate cleaning. 50 μL of diluted test anti-PVRIG antibody and 50 μL of his-tagged ligand PVRL2 were added to each well, and the plate was incubated at 37° C. for 1 h. The plate was washed three times with wash buffer at 250 μL per well. The HRP-labeled anti-his-tagged secondary antibody (Genscrpit) diluted at 1:2000 was added at 100 μL per well. The plate was incubated at 37° C. for 1 h. The plate was washed three times with wash buffer at 250 μL per well. TMB was added at 100 μL/well, and the plate was incubated in the dark for 15 min. 0.16 M sulfuric acid was added at 50 μL/well. OD values at 450 nm were measured using a Thermo MμtLtiSkanFc microplate reader, and the IC₅₀ values of the anti-PVRIG antibodies blocking the binding of PVRIG to PVRL2 were calculated.
as §3

Row | IC50 [nM] | Binder
26 | 0.964 | B2
27 | 0.628 | B6
28 | 0.552 | B7
